# Data as given in patent US20250257137A1.
# Key:
# [1] = molecular target: anti-CMVpHLA antibody (available from Ajou University)
# [2] = molecular target: anti-CMVpHLA antibody (available from Ajou University); remark: listed apart in the source
# [3] = molecular target: Fcµ receptor (R&D systems) (UniProt O60667); assay: ELISA, Fcµ coated, anti-IgM-HRP; IMB-4011 = 100
# [4] = molecular target: Fcα/µ receptor (R&D systems) (UniProt Q8WWV6); assay: ELISA, Fcα/µ coated, anti-IgM-HRP; IMB-4011 = 100
# [5] = molecular target: pIgR (polymeric Ig receptor; R&D systems) (UniProt P01833); assay: ELISA, pIgR coated, anti-IgM-HRP; IMB-4011 = 100
# [6] = molecular target: Fcα/µ receptor (R&D systems) (UniProt Q8WWV6); assay: ELISA, Fcα/µ coated; IMB-4011 = 100 (Example 2-7)
# [7] = molecular target: Fcµ receptor (R&D systems) (UniProt O60667); assay: ELISA, Fcµ coated; IMB-4011 = 100 (Example 2-7)
# [8] = molecular target: pIgR (polymeric Ig receptor; R&D systems) (UniProt P01833); assay: ELISA, pIgR coated; IMB-4011 = 100 (Example 2-7)
# [9] = molecular target: conjugate of FcRn and β2m antigen (ACRO biosystems) (UniProt P55899)
substance,measurement,setting,value
CMVpHLA (peptide-MHC),Kd,[1],1.84 nM
same,koff,[1],0.00464 s⁻¹
same,kon,[1],2.52e+06 M⁻¹ s⁻¹
[(CMVpHLA)2-((GGGGS)3)2-(IgM Fc region)]5-(J chain) (from UniProt P01591 23-159) (Fc fusion),Kd,[1],0.00622 nM
[(CMVpHLA)2-(IgA hinge region)2-(IgM Fc region)]5-(J chain) (from UniProt P01591 23-159) (Fc fusion),Kd,[1],0.00586 nM
[(CMVpHLA)2-(IgD hinge region)2-(IgM Fc region)]5-(J chain) (from UniProt P01591 23-159) (Fc fusion),Kd,[1],0.00681 nM
same,EC50 (read off the curve),[2],0.02 nM
[(CMVpHLA)2-(IgD hinge region)2-(IgM Fc region)]6-(J chain)0 (Fc fusion),Kd,[1],0.0233 nM
same,koff,[1],0.000197 s⁻¹
same,kon,[1],8.44e+06 M⁻¹ s⁻¹
[(CMVpHLA)2-(linker)0-(IgM Fc region)]5-(J chain) (from UniProt P01591 23-159) (Fc fusion),Kd,[1],0.0102 nM
same,EC50 (read off the curve),[2],0.01 nM
[(CMVpHLA)2-(linker)2-(IgG Fc region)-(IgM Fc region L126 deletion)]5-(J chain) (from UniProt P0DOX6 341-576; P01591 23-159) (Fc fusion),Relative binding ability to Fcµ receptor (%),[3],12%
same,Relative binding ability to Fcα/µ receptor (%),[4],1%
same,Relative binding ability to pIgR (%),[5],6%
[(CMVpHLA)2-(linker)2-(IgG Fc region)-(IgM Fc region L126G)]5-(J chain R106V) (from UniProt P0DOX6 341-576; P01591 23-159) (Fc fusion),Relative binding ability to Fcα/µ receptor (%),[6],0.4%
same,Relative binding ability to Fcµ receptor (%),[7],3%
same,Relative binding ability to pIgR (%),[8],2%
[(CMVpHLA)2-(linker)2-(IgG Fc region)-(IgM Fc region L126G)]5-(J chain R106W) (from UniProt P0DOX6 341-576; P01591 23-159) (Fc fusion),Relative binding ability to Fcα/µ receptor (%),[6],0.5%
same,Relative binding ability to Fcµ receptor (%),[7],3%
same,Relative binding ability to pIgR (%),[8],2%
[(CMVpHLA)2-(linker)2-(IgG Fc region)-(IgM Fc region L126G)]5-(J chain) (from UniProt P0DOX6 341-576; P01591 23-159) (Fc fusion),Relative binding ability to Fcµ receptor (%),[3],7%
[(CMVpHLA)2-(linker)2-(IgG Fc region)-(IgM Fc region L126S)]5-(J chain R106V) (from UniProt P0DOX6 341-576; P01591 23-159) (Fc fusion),Relative binding ability to Fcα/µ receptor (%),[6],1%
same,Relative binding ability to Fcµ receptor (%),[7],3%
same,Relative binding ability to pIgR (%),[8],2%
[(CMVpHLA)2-(linker)2-(IgG Fc region)-(IgM Fc region L126S)]5-(J chain R106W) (from UniProt P0DOX6 341-576; P01591 23-159) (Fc fusion),Relative binding ability to Fcα/µ receptor (%),[6],1%
same,Relative binding ability to Fcµ receptor (%),[7],3%
same,Relative binding ability to pIgR (%),[8],3%
[(CMVpHLA)2-(linker)2-(IgG Fc region)-(IgM Fc region L126S)]5-(J chain) (from UniProt P0DOX6 341-576; P01591 23-159) (Fc fusion),Relative binding ability to Fcµ receptor (%),[3],7%
same,Relative binding ability to pIgR (%),[5],8%
[(CMVpHLA)2-(linker)2-(IgG Fc region)-(IgM Fc region N125K)]5-(J chain) (from UniProt P0DOX6 341-576; P01591 23-159) (Fc fusion),Relative binding ability to Fcµ receptor (%),[3],7%
[(CMVpHLA)2-(linker)2-(IgG Fc region)-(IgM Fc region)]5-(J chain D105K) (from UniProt P0DOX6 341-576; P01591 23-159) (Fc fusion),Relative binding ability to pIgR (%),[5],8%
[(CMVpHLA)2-(linker)2-(IgG Fc region)-(IgM Fc region)]5-(J chain N107K) (from UniProt P0DOX6 341-576; P01591 23-159) (Fc fusion),Relative binding ability to pIgR (%),[5],8%
[(CMVpHLA)2-(linker)2-(IgG Fc region)-(IgM Fc region)]5-(J chain R106 deletion) (from UniProt P0DOX6 341-576; P01591 23-159) (Fc fusion),Relative binding ability to Fcµ receptor (%),[3],59%
same,Relative binding ability to Fcα/µ receptor (%),[4],1%
same,Relative binding ability to pIgR (%),[5],4%
[(CMVpHLA)2-(linker)2-(IgG Fc region)-(IgM Fc region)]5-(J chain R106F) (from UniProt P0DOX6 341-576; P01591 23-159) (Fc fusion),Relative binding ability to Fcα/µ receptor (%),[4],7%
[(CMVpHLA)2-(linker)2-(IgG Fc region)-(IgM Fc region)]5-(J chain) (from UniProt P0DOX6 341-576; P01591 23-159) (Fc fusion),EC50 (read off the curve),[9],200 nM
